Data reported in the RNAGym collection of RNA variant scans (doi:10.1073/pnas.2313332121).
Fewer inactive variants are shown than the library holds.

B1: TPR 5TU (parent)
chain: GGAUCUUCUCGAUCUAACAAAAAAGACAAAUCUGCCACAAAGCUUGAGAGCAUCUUCGGAUGCAGAGGCGGCAGCCUUCGGUGGCGCGAUAGCGCCAACGUUCUCAACUAUGACACGCAAAACGCGUGCUCCGUUGAAUGGAGUUUAUCAUG

Variants of: B1
Experiment: polymerase ribozyme fitness, log enrichment relative to wild type (log ratio); higher = more active; in vitro selection for triplet polymerase activity
Summary of the method: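 To select mutant libraries of each subunit of a heterodimeric triplet polymerase ribozyme, built by PCR and transcribed, each was annealed with a biotinylated primer, partner subunit and triplets, then incubated frozen at −7 °C. Extended constructs were gel-excised, captured on streptavidin beads and amplified by RT-PCR, in one round carried out in triplicate. Illumina sequencing of input and output libraries kept genotypes with ≥10 input reads and ≥1 read per output. Fitness is the base-2 logarithm of genotype enrichment relative to wild-type enrichment, from inverse-variance-weighted replicate averages.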

Going from GGAUCUUCUCGAUCUCACAAAAAAGACAAAUCUGCCUCAAAGCUUGAGAGCAUCUUCAGAUGCAGAGGCGGCAGCCUUCUGUGGGGCGAUAGGGCCAACGUUCUCAACUAUGACACGCAAAACGCGUGCUCCGUUGAAUGGAGUUUAUCGUG [A16C A37U G58A G80U C85G C93G A150G] to GGAUCUUCUCGAUCUCACAAGAAAGACAAAUCUGCCACAAAGCUUGAGAGCAUAUUCGGAUGCAGAGGCGGCAGCCUUCGGUGGCGCGAUAGCGACAACGUUCUCAACUAUGACACGCAAAACGCGUGCUCCGUUGAAUGGAGUUUAUCAUG [A16C A21G C54A C95A], the “polymerase ribozyme fitness (log ratio)” value rises from no more than -4.2 to -3.07.

Compared with GGAUCUUCUCGAUCUCACAAAAAAGUCAAAUCUGCCACAAAGCUUGAGAGCAUCUUCGGAUGCAGAGGCGGCAGCCUUCGGUGGCGCGAUAGCGCCAACGUUCUCAACUAUGACACGCAAAACGCGUGCUCCGUUGAAUGGAGUUUAUCAUG [A16C A26U], GGAUCUUCUCGAUCUCACAAAUAAGACAAAUCUGCCACAAAGCUUGAGAGCAUCUUCGGAUGCAGAGGCGGCAGCCUUCGGUGGCGCGUUAGUGCCAACGUUCUCAACUAUGACACGCAAAACGCGUGCUCCGUUGAAUGGAGUUUAUCAUG [A16C A22U A89U C93U] is lower in “polymerase ribozyme fitness (log ratio)” value: -2.62 for the first, -3.06 for the second.

GGAUCUUCUCGAUCUCACAUAAAAGACUAAUCUGACACAAAGCUUGAGAUCAUCUUCGCAUGCAGAGGCGGCAGCCUUCGGUGACGGGAUAGCGCUAACGUUAUCAACUAUGACACGCAAAACGCGUGCUCCGUUGAAUGGAGUUUAACAUG [A16C A20U A28U C35A G50U G59C G84A C87G C96U C103A U148A] and GGAUCUUCUCGAUCUCACAAAAAAGACAAAUCUGCCCCACAGCUUGAGAGCAUCUUCGGAUGUUGAGGGGGCAGCUUUCGGUGGCGCGAUAGCGCCAACGUUCUCAACUAUGACACGCAAAACGCGUGCUCCGUUGAAUGCAGUUUAUCAUG [A16C A37C A40C C63U A64U C69G C76U G141C] cannot be ordered by “polymerase ribozyme fitness (log ratio)” value: no more than -4.2 for the first, no more than -4.2 for the second.

GGAUCUUCUCGAUCUCACAGAAAUGACAAAUCUGCCACAGAGCUUGAUAGCAUCUUCUGAUGCAGAGGCGGCAGCCCUCGGUGGUGCGAUAGCGCCAACGUUCUCAACUAUGACACGCAAAACGCGUGCUCCGUUGAAUGGAGUUUAUCAUG [A16C A20G A24U A40G G48U G58U U77C C85U] and GGAUCUUCUCGAUCUCACAAAAAAGUCAAAUCUGCCACAAAUCUUGCGAGCAUCAUCGGAUGCAGAGGCGGCAGCCUUCGGUGGCGCGAGAGCGCCAGCGUUCUCAACUAUGACACGCAAAACGCGUGCUCCGUUGAAUGGAGUUUAUCAUG [A16C A26U G42U A47C U55A U90G A98G] cannot be ordered by “polymerase ribozyme fitness (log ratio)” value: no more than -4.2 for the first, no more than -4.2 for the second.

First: GGAUCUUCUCGAUCUCACAAAAAAGACAAAUCUGCCACAAAGCUUGAGUGCAUCUUCGGAUGCAGAGGCGGCAGCCUUCGGUGGAGCGAUAGCGCCAACGUUCUCAACUAUGACACGCAAAACGCUUGCUCCGUUGAAGGGAGUUUAUCAUG [A16C A49U C85A G126U U139G]
Second: GGAUCUUCUCGAUCUCACAACAAAGACAAAUCUGCCACAAAGCUUGAGAGCAUCUUAGGAUGCAGAGGCGGCAGCCUUCGGUGGCGCUAUAGCGCCAACGUUGUCAACUAUGACACGCAAAACGCGUGCGCCGUUGAAUGGAGUUUAUCAUG [A16C A21C C57A G88U C103G U130G]
The “polymerase ribozyme fitness (log ratio)” value of the first is higher: -3.47 for the first, no more than -4.2 for the second.

First: GGAUCUUCUCGAUCUCACAAAAAAGACAAAUCUGCCACACAGCUUGAGAGCAUCUUCGGAUGCAGAGGCGGCAGCCUUCGGUAGCGCGAUAGCGCCGACGUUCUCAACUAUGACACGCAAAACGCGUGCUCCGUUGAAUGGAGUUUAUCAUG [A16C A40C G83A A97G]
Second: GGAUCUUCUCGAUCUCACAAAAAAGGCAAAUCUGACACAAAGCUUGAGAGCGUCUUCGGAUGCAGAGGCGGCAGCCUUCGGUGGCGUGAUAGCGCCAACGUUCUCAACUAUGACACGCAAAACGCGUGCUCCGUUGAAUGGAGUUUAUCAUG [A16C A26G C35A A52G C87U]
The “polymerase ribozyme fitness (log ratio)” value of the first is higher: -0.914 for the first, -3.98 for the second.

First: GGAUCUUCUCGAUCUCACAAAAAGGACAAAUCUGCCACAAAGCUUGAGAGCAUCUCCGGAUGCAGAGGCGGCAGCCCUCGGUGGCACGAUAGCGCCAACGUUCGCAACUAUGACACGCAAAACGCGUGCUCCGUUGAAAGGGGUUUAUCAUG [A16C A24G U56C U77C G86A U104G U139A A142G]
Second: GGAUCUUCUCGAUCUCACAAAAAAGACAAAUCUGCCACACAGCUUGAGAGCAUCUUCGAAUGCAGAGGCGGCAGCCUUCGGUGGCGCGAUAGUGCCAACGUUCUCGACUAUGACACGCAAAACGCGUGCUCCGUUGAAUGGAGUUUAUCAUG [A16C A40C G59A C93U A106G]
The “polymerase ribozyme fitness (log ratio)” value of the first is lower: no more than -4.2 for the first, -2.02 for the second.

GGAUCUUCUCGAUCUCACAAAUAAGACAAAUCUGCCACAAAGCUUGAGAGCAUCUUCGGAUACAGAGGCGGCAACCUUCGCUGGCGCGAUAGCGCCAACGUUCUCGACUAUGACACGCAAAACGCGUGCUCCGUUGAAUGCAGUUUAUCAUG [A16C A22U G62A G74A G81C A106G G141C] and GGAUCUUCUCGAUCUCACAAAAAGGACAAAUCUGCCACAAAGCUUGAGAGCAUCUUCGGAUGCAGAGGCGGCCGCCUUCGGUGGCGCGAUAGCGCCAACGUUCUCAACUAUGACACGCAAGACGCGUGCUCCGUUGAAUGGAGUUUAUCAUG [A16C A24G A73C A121G] cannot be ordered by “polymerase ribozyme fitness (log ratio)” value: no more than -4.2 for the first, no more than -4.2 for the second.

First: GGAUCUUCUCGAUCUCACAAAAAAGACAAAUCUGCCACAUAGCUUGAGAGCAUCUUCGGAUGCAGAGGCGGCAGCCUUCGGUGGCGCGAUAGAGCCAACGUUCUCAACUAUGACACGCAAAGCGCGUGCUCCGUUGAAUGCAGUUUAUCAUG [A16C A40U C93A A122G G141C]
Second: GGAUCUUCUCGAUCUCACAUAAAAGACAAAUCUGCCACAAAGCUUGAGAGCAUCUUCGGAUGCAGAGGCGGCAGCCUUCGGUGGCGCGAUAGCGCCAACGUUCUCAACUAUGACACGCAAAACGCGUGCUCCGUUGAAUGGAGUUUAUCAUG [A16C A20U]
The “polymerase ribozyme fitness (log ratio)” value of the first is lower: no more than -4.2 for the first, -2.36 for the second.

For GGAUCUUCUCGAUCUCACAAAAAAGACAAAUCUGCCACAAAGCUUGAGUGCAUCUUCGGAUGCAGAGGCGGCAGCCUUCGGUGGUGCGAUAGCGCCAACGUUCUCAACUAUGACACGCAAAACGCGUGCUCCGUUGAAUGGAGUUCAUCAUG [A16C A49U C85U U146C], the “polymerase ribozyme fitness (log ratio)” value was -2.7.
